# Assay results: the RNAGym collection of RNA variant scans (doi:10.1073/pnas.2313332121)
# Fewer inactive variants are shown than the library holds.
# B1: TPR 5TU (parent)
# chain: GGAUCUUCUCGAUCUAACAAAAAAGACAAAUCUGCCACAAAGCUUGAGAGCAUCUUCGGAUGCAGAGGCGGCAGCCUUCGGUGGCGCGAUAGCGCCAACGUUCUCAACUAUGACACGCAAAACGCGUGCUCCGUUGAAUGGAGUUUAUCAUG
# Variants of: B1
# Experiment: polymerase ribozyme fitness, log enrichment relative to wild type (log ratio); higher = more active; in vitro selection for triplet polymerase activity
# How it was run: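 A single round of triplicate in vitro selection, including frozen incubation at −7 °C, was applied to PCR-built, transcribed mutant libraries of each subunit of a heterodimeric triplet polymerase ribozyme. Illumina sequencing of input and output libraries retained genotypes with ≥10 input reads and ≥1 read per output. Fitness is the base-2 logarithm of genotype enrichment divided by wild-type enrichment, from inverse-variance-weighted replicate averages.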
row,Variant,polymerase ribozyme fitness (log ratio)
1,A41C U102A,-1.07
2,C76G C85G G92A A120C C129U,≤ -4.2
3,G81A U144C,-1.41
4,C57G A73G C87G A98U C125G G141A,≤ -4.2
5,C14U G88A,-4.2
6,A40G,-1.51
7,C32U U55A,-1.62
8,A17G C93A A106G,-1.94
9,C87A C125U,-4.14
10,U33A C38G A52U C87G G136A,≤ -4.2
11,G48C C51A C54A C63U G68A U77C G88A C96U A142G,≤ -4.2
12,A47C C57U C79A G94A U151G,≤ -4.2
13,U7C U31A G46A G59C C85G C118U,≤ -4.2
14,A24G A52C G68A U151G,≤ -4.2
15,A16G G34U A52U A60G G88U A91U G140C,-4.14
16,C105U,0.527
17,C8A U55A C79U G84A C108G G124A,≤ -4.2
18,C43U G86U C125A,≤ -4.2
19,U55A A98U,-0.0691
20,A40G A41U U53A C123A C125U U134G,-3.73
21,C132U U145G,-0.815
22,C75U C99U,-2.07
23,C36U G143A,-2.3
24,A12U U109G,-2.25

row,Variant,polymerase ribozyme fitness (log ratio)
1,A17U C79G C87U U144G,≤ -4.2
2,A41G G42A G92C U111C A113U C125G,≤ -4.2
3,A29U C36A A47C C118U U146C,≤ -4.2
4,A52U A89U C96A,-2.98
5,C36A C95U C125G U127C,≤ -4.2
6,C10U U78A G86A A107G G124A G140A G141C,≤ -4.2
7,G50A C93A A97G C99U U109G,≤ -4.2
8,C93A C118G,-3.44
9,A3G A30C C51U U55G U61A G68U G83C A142G,≤ -4.2
10,A47C C105A,-1.02
11,G50U G81A C96G A142U,-2.59
12,C14U U56A G74A C85A C87A C125U G143C A150U G152U,≤ -4.2
13,A12G C54U G86U C105U G143A,-2.5
14,C69U C85G C149U,-2.74
15,C10G G68C G83U A107C,≤ -4.2
16,A29U A40C G46A G67A G81A C85G A113C A137G,≤ -4.2
17,G58A G88C G92A C96A,≤ -4.2
18,A49U G58C G124U,-1.3
19,C85U U146A G152U,-3.06
20,A107G G141A,-2.72
21,U53G G59C U61A G88C G94U,≤ -4.2
22,A47C A150U,-0.247
23,A19U A21U G46C C96A U134A,≤ -4.2
24,C76G C96A G140A,≤ -4.2

row,Variant,polymerase ribozyme fitness (log ratio)
1,C85U A150U G152A,-0.481
2,U13A U53A C63G A97U U102G A142C,≤ -4.2
3,A52U G68A U82G G133U A137C A142C,≤ -4.2
4,A39G C54U C85U,-1.83
5,U33C C36U U56A G84U U90C A110C G143C,≤ -4.2
6,G11A U56A C99U G143C,-3.7
7,A19U A30C G42A C43G C54G G70U U77C C96G A107G,≤ -4.2
8,C51U G58C G62U C69U C96G,-3.67
9,U4G A37U G81A C99A A106C U127G,≤ -4.2
10,C85G C87G A98U A137G U144C,≤ -4.2
11,A52U C95U,-1.52
12,C114G G124C,-4.13
13,A73U C85A A147C,-2.75
14,A30U G86U,≤ -4.2
15,C125A U148A,-3.93
16,A20U C54A G92U,-3.48
17,A17U G94A,-1.24
18,G92U A115C,-2.23
19,U4A A147C,-0.789
20,G124U,-0.432
21,C18U G25U G42C A73U G83U C93U A106G A121C U144A,≤ -4.2
22,A12C G25U C51G C72G C118G,≤ -4.2
23,A29U C96U G136U,≤ -4.2
24,U55A C79U G83A C93A A97C A138U,≤ -4.2

row,Variant,polymerase ribozyme fitness (log ratio)
1,G83U C95G,-1.54
2,A24C A28G U53A U134A,≤ -4.2
3,U6G G46A A113U C125U G136U U146C,≤ -4.2
4,U44A G92A C93A G141C,≤ -4.2
5,C57U C95A G136A,-0.1
6,A3U A49G G84C,-3.89
7,C87U C93U,-2.9
8,U56G G58C U61A,-2.98
9,C76A C87U G92C,-2.48
10,C87U C129G,-2.63
11,A60G A119C A120U U151C,-4.18
12,A28U G59U G74U C85G A113U C114A U127A,≤ -4.2
13,A73G A98G,0.461
14,C51G G94A U135A,-3.11
15,U55A C76A,-0.81
16,C18U A28C C87G G124U U139G U146G,≤ -4.2
17,A26U G46U G58A A73U C85G U111G,≤ -4.2
18,G11A A49C,≤ -4.2
19,A17C C18G A40U G86U,-1.43
20,G70C G83A C87U G117C,-3.9
21,A16U A20C A41U C87G A98G,≤ -4.2
22,G42A G92C,-3.91
23,A40U G92C A147C,-0.761
24,A49C G81C C85U A98U U104C,≤ -4.2

row,Variant,polymerase ribozyme fitness (log ratio)
1,U55A A64G U135A,≤ -4.2
2,A28U U55G C85G G88A A89U C103U G143C,≤ -4.2
3,C8U A22U A37C C57G C99A U148A G152A,≤ -4.2
4,G86C A89U,-2.94
5,A40U U56A,-0.0589
6,A39U A91U,≤ -4.2
7,A20G G46U G92U,-0.107
8,U9A A16U C57U G70A C79A G88U C95U A119U U151A,≤ -4.2
9,U56A U78A C79A,≤ -4.2
10,A16U U56A A60U C93U G141U,-3.72
11,U4G C57A A73G C87U,-0.214
12,C87U C118U U135G,≤ -4.2
13,C93A C105A,≤ -4.2
14,U53G U61A A97G A113U,-4.18
15,C10U A29G A47C U55G A60U C95U U144A U146G,≤ -4.2
16,C85A A121U U127C,-1.47
17,A89C G143A,-0.0918
18,A40C C85G,-1.95
19,U77G C79G G83C,≤ -4.2
20,U56C C85G C149A,≤ -4.2
21,C27G U56G,≤ -4.2
22,C75G A113U,≤ -4.2
23,A39U U61G C85U C93U U134A,≤ -4.2
24,U55A A89C,-0.409

row,Variant,polymerase ribozyme fitness (log ratio)
1,A73U G84U G152A,-3.83
2,C35U G59C,0.0057
3,G48U U146G,-1.42
4,C18G C35A G46C G58C C95G A113U,≤ -4.2
5,A20U A47U G70C G80C C85G C93A C108U A122G U144G,≤ -4.2
6,C57G G71U C72G G84U G133U A137U,≤ -4.2
7,G58A C149A,-3.67
8,G88U C95G U144C,≤ -4.2
9,A47G C54A,-1.65
10,C5U A12C A40C U61A C95U,-2.18
11,C10G A30U C43G G58A G68A G80A A113C,≤ -4.2
12,A41U G80U U101C,-4.09
13,G50C G86U U111G,≤ -4.2
14,A19U C54G C79A U82C G84A A89C G92C U144C,≤ -4.2
15,G11U A16U A52C G58C G65A C79A G83U C93U C118A,≤ -4.2
16,C5G A19U A91G A113G,≤ -4.2
17,C87U G141C,-1.72
18,C5U A20U C57U G68A C72U G92A,≤ -4.2
19,C18A A19C A40C C85U,0.244
20,A52G G59A G92A,-3.59
21,A60G G67A U78G C96G A120U G140U A147G,≤ -4.2
22,U31G C79U U90G A106G C108A A137C,≤ -4.2
23,G88U C108G C118U A120U,≤ -4.2
24,C38A C76A A97G U134G,-3.3

row,Variant,polymerase ribozyme fitness (log ratio)
1,U6G G94C C123A,0.0628
2,C14U U53G,-3.01
3,C93A G124C,-2.88
4,A73U C108A A110C G133A,≤ -4.2
5,C57U C85U U102A C114A,-3.9
6,A47C G83A C118U G133C U148C,≤ -4.2
7,C38A A49C G67A C79G,≤ -4.2
8,U55C C93G,-3.57
9,G50A U55A A97C A147U U148A,≤ -4.2
10,C85U C95A U127G,-3.88
11,U90A A107G,≤ -4.2
12,U31G U56A,0.083
13,C10A A12U A47U C93G A137G,≤ -4.2
14,A47C G141C U148G,≤ -4.2
15,G62C G143U,-3.58
16,C18U U44A G50A A52U G74A A91U C105G A106G C129G,≤ -4.2
17,U109A U151A,≤ -4.2
18,A24G G92U A122G,≤ -4.2
19,G59A C95U C103G,-2.47
20,U13G G86U,-3.56
21,C10G G42U C63U C95A C123G,≤ -4.2
22,A12U U56C G59A G88C,≤ -4.2
23,C8A A17C A24G A30G C35G G81C A89C G141C,-3.67
